Measured values reported in the RNAGym collection of RNA variant scans (doi:10.7554/elife.80360).

B1: Twister Ribozyme (parent)
chain: AACACUGCCAAUGCCGGUCCCAAGCCCGGAUAAAAGUGGAGGGGGCGG

Variants of: B1
Assay: self-cleavage, relative activity (ratio to wild type); higher = more cleavage; co-transcriptional

In order of rising self-cleavage:
1. A23G C25G  0.0343
2. A22G C26G  0.0488
3. A22G G42U  0.0653
4. A23C U37G  0.0666
5. A22U C27G  0.0668
6. A22U G39U  0.0706
7. A23C A35G  0.0714
8. A22U G36U  0.074
9. A22U G24A  0.0776
10. A22G G39C  0.0779
11. A22G G36A  0.0781
12. C21U U37A  0.0811
13. A23C C26U  0.0813
14. A23C G29C  0.0814
15. A22G A23G  0.0844
16. A22G U37G  0.0844
17. A23C C27G  0.0848
18. A22U A23G  0.0873
19. A23C U37A  0.088
20. C21U G44U  0.0882
21. A22G G41A  0.0888
22. A23C G36A  0.09
23. A22G C26A  0.0908
24. A23C A33G  0.0917
25. A23C G39U  0.0921
26. A22G G38C  0.0945
27. A23C G36U  0.0946
28. A22G A34U  0.096
29. A23C A33C  0.0964
30. A22G G43A  0.0968
31. A22G C27A  0.0974
32. A23G G36C  0.0979
33. A23C C27A  0.0984
34. A22G A34G  0.0987
35. A22G G24C  0.0998
36. A23G C26U  0.101
37. A22U G41A  0.102
38. A22U C26U  0.103
39. A22G G36U  0.105
40. A23G C26G  0.107
41. C21U G47U  0.109
42. A22G A40C  0.11
43. A22U C26A  0.11
44. A22C G39U  0.111
45. A22G A30C  0.111
46. A23C G41C  0.112
47. A22U G39C  0.115
48. C21U U31G  0.115
49. A23C C25U  0.116
50. A23C G43A  0.117
51. C21U G45U  0.118
52. A22G G41U  0.119
53. A22C C25A  0.12
54. A23C G24C  0.124
55. A23C G29U  0.124
56. A23C G45C  0.125
57. A22U G42A  0.126
58. A23C G47A  0.127
59. A22U A40U  0.128
60. A22C A40G  0.128
61. A22U G43C  0.129
62. A23C A33U  0.13
63. A22G C25U  0.131
64. A23C A34G  0.135
65. A22G A40U  0.138
66. A22G A35G  0.138
67. A23G C27U  0.14
68. A22U G41C  0.142
69. A22G G45U  0.143
70. A23C G47U  0.145
71. A23G C27A  0.147
72. A22C A23C  0.148
73. A23G A34U  0.15
74. A22G U37A  0.152
75. A22C G39C  0.161
76. A23C G28U  0.161
77. A23C C46A  0.164
78. A22G G29U  0.183
79. A23G G28U  0.184
80. A23C G44U  0.195
81. A22G U31A  0.196
82. A22C G36U  0.204
83. A23C G48C  0.211
84. A23C G44C  0.212
85. A22C G42A  0.215
86. A22U G47C  0.216
87. A23C G38C  0.219
88. A22C C25G  0.222
89. A22G G44C  0.225
90. A23C A35C  0.227
91. A22C G42C  0.237
92. A22G A33U  0.237
93. A23C A32U  0.241
94. A22G G44U  0.243
95. A23G G28C  0.246
96. A22G G48A  0.246
97. A22G A33G  0.255
98. A22U U37A  0.256
99. A22C G43U  0.273
100. A22G G45A  0.277
101. A22G A32U  0.278
102. A22G C46U  0.286
103. A22G U31C  0.304
104. A23G G29A  0.307
105. A22G G44A  0.315
106. A22G G48C  0.318
107. A22C G41A  0.326
108. A22C A23G  0.341
109. A22G A32C  0.35
110. A23G A32C  0.366
111. A22C G41U  0.366
112. A22G  0.368
113. A23C A30G  0.385
114. A23G A32G  0.402
115. A23G C46G  0.405
116. A23G G29U  0.425
117. A22C C26A  0.46
118. A23C G44A  0.478
119. A22U G28A  0.485
120. A22U C25U  0.513
121. A22U A34G  0.535
122. A23G C46U  0.579
123. A22U G47A  0.582
124. A22U A35G  0.583
125. A23G A30U  0.587
126. A22G A40G  0.588
127. A22C U37C  0.624
128. A23G A30G  0.647
129. A22U G29U  0.66
130. A22U G48A  0.666
131. A22U G45A  0.678
132. A22U C27U  0.692
133. A22U A33U  0.698
134. A22U G28U  0.736
135. A22U A33C  0.737
136. A22U C46U  0.773
137. A22U G38C  0.779
138. A22C G38U  0.782
139. A22U A30G  0.783
140. A22U G44U  0.812
141. A22C C46U  0.832
142. A22U G44C  0.836
143. A22C G28A  0.862
144. A22C C46G  0.869
145. A22U  0.879
146. A22C G38A  0.894
147. A22C C27U  0.901
148. A22C G47A  0.909
149. A22U G48U  0.911
150. A22C G44A  0.914
151. A22C G47U  0.917
152. A22C G45A  0.927
153. A22C G29C  0.929
154. A22U U31C  0.935
155. A22C G28U  0.937
156. A22C C25U  0.948
157. A22U G48C  0.954
158. A22C G28C  0.955
159. A22C A33C  0.955
160. A22C A35U  0.962
161. A22C G38C  0.976
162. A22C A33U  0.983
163. A22C U31G  0.987
164. A22U A30U  0.999
165. A22C A30U  1
166. A22C  1.02
167. A22C C46A  1.02
